{"source": "patent US20170209564A1", "binders": {"B1": {"name": "CR6261 (antibody, V domains shown)", "VH": "EVQLVESGAEVKKPGSSVKVSCKASGGPFRSYAISWVRQAPGQGPEWMGGIIPIFGTTKYAPKFQGRVTITADDFAGTVYMELSSLRSEDTAMYYCAKHMGYQVRETMDVWGKGTTVTVSS", "VL": "QSVLTQPPSVSAAPGQKVTISCSGSSSNIGNDYVSWYQQLPGTAPKLLIYDNNKRPSGIPDRFSGSKSGTSATLGITGLQTGDEANYYCATWDRRPTAYVVFGGGTKLTVLG"}}, "conditions_in_all_cases": "remark: other sources report otherwise", "key": {"11H6": {"target": "11H6", "experiment": "ELISA signal over HTRF expression signal, P. pastoris"}, "12C6": {"target": "12C6", "experiment": "ELISA signal over HTRF expression signal, P. pastoris"}, "26H1": {"target": "26H1", "experiment": "ELISA signal over HTRF expression signal, P. pastoris"}, "2C4": {"target": "2C4", "experiment": "ELISA signal over HTRF expression signal, P. pastoris"}, "36D6": {"target": "36D6", "experiment": "ELISA signal over HTRF expression signal, P. pastoris"}, "48D11": {"target": "48D11", "experiment": "ELISA signal over HTRF expression signal, P. pastoris"}, "4C1": {"target": "4C1", "experiment": "ELISA signal over HTRF expression signal, P. pastoris"}, "50G10": {"target": "50G10", "experiment": "ELISA signal over HTRF expression signal, P. pastoris"}, "53G10": {"target": "53G10", "experiment": "ELISA signal over HTRF expression signal, P. pastoris"}, "56F8": {"target": "56F8", "experiment": "ELISA signal over HTRF expression signal, P. pastoris"}, "57B8": {"target": "57B8", "experiment": "ELISA signal over HTRF expression signal, P. pastoris"}, "58A5": {"target": "58A5", "experiment": "ELISA signal over HTRF expression signal, P. pastoris"}, "60A2": {"target": "60A2", "experiment": "ELISA signal over HTRF expression signal, P. pastoris"}, "63C3": {"target": "63C3", "experiment": "ELISA signal over HTRF expression signal, P. pastoris"}, "67C11": {"target": "67C11", "experiment": "ELISA signal over HTRF expression signal, P. pastoris"}, "69G8": {"target": "69G8", "experiment": "ELISA signal over HTRF expression signal, P. pastoris"}, "6E12": {"target": "6E12", "experiment": "ELISA signal over HTRF expression signal, P. pastoris"}, "71E7": {"target": "71E7", "experiment": "ELISA signal over HTRF expression signal, P. pastoris"}, "74H9": {"target": "74H9", "experiment": "ELISA signal over HTRF expression signal, P. pastoris"}, "76A10": {"target": "76A10", "experiment": "ELISA signal over HTRF expression signal, P. pastoris"}, "78G2": {"target": "78G2", "experiment": "ELISA signal over HTRF expression signal, P. pastoris"}, "81F11": {"target": "81F11", "experiment": "ELISA signal over HTRF expression signal, P. pastoris"}, "84B8": {"target": "84B8", "experiment": "ELISA signal over HTRF expression signal, P. pastoris"}, "84E10": {"target": "84E10", "experiment": "ELISA signal over HTRF expression signal, P. pastoris"}, "85A7": {"target": "85A7", "experiment": "ELISA signal over HTRF expression signal, P. pastoris"}, "86B3": {"target": "86B3", "experiment": "ELISA signal over HTRF expression signal, P. pastoris"}, "86G3": {"target": "86G3", "experiment": "ELISA signal over HTRF expression signal, P. pastoris"}, "87H5": {"target": "87H5", "experiment": "ELISA signal over HTRF expression signal, P. pastoris"}, "89F11": {"target": "89F11", "experiment": "ELISA signal over HTRF expression signal, P. pastoris"}, "8A10": {"target": "8A10", "experiment": "ELISA signal over HTRF expression signal, P. pastoris"}, "96A7": {"target": "96A7", "experiment": "ELISA signal over HTRF expression signal, P. pastoris"}, "96G5": {"target": "96G5", "experiment": "ELISA signal over HTRF expression signal, P. pastoris"}, "96H8": {"target": "96H8", "experiment": "ELISA signal over HTRF expression signal, P. pastoris"}, "9C6": {"target": "9C6", "experiment": "ELISA signal over HTRF expression signal, P. pastoris"}, "[1]": {"target": "T1, H1-mini2-cluster1+5+6-GCN4 without leader sequence and with FLAG-thrombin-foldon-HIS", "experiment": "ELISA signal over HTRF expression signal, HEK293F; the reference itself"}, "[2]": {"target": "T1, H1-mini2-cluster1+5+6-GCN4 without …", "experiment": "ELISA signal over HTRF expression signal, P. pastoris; the reference itself"}, "[3]": {"target": "T1, H1-mini2-cluster1+5+6-GCN4 without …", "experiment": "ELISA signal over HTRF expression signal, P. pastoris; average of the parental"}}, "data": [{"binder": "B1", "values": [{"measurement": "fold increase of ratio over parental SEQ ID NO: 6", "setting": "11H6", "value": 7.87}, {"measurement": "ratio (binding signal/HTRF signal)", "setting": "11H6", "value": 46.7}, {"measurement": "fold increase of ratio over parental SEQ ID NO: 6", "setting": "12C6", "value": 2.43}, {"measurement": "ratio (binding signal/HTRF signal)", "setting": "12C6", "value": 14.4}, {"measurement": "fold increase of ratio over parental SEQ ID NO: 6", "setting": "26H1", "value": 1.62}, {"measurement": "ratio (binding signal/HTRF signal)", "setting": "26H1", "value": 9.64}, {"measurement": "fold increase of ratio over parental SEQ ID NO: 6", "setting": "2C4", "value": 4.29}, {"measurement": "ratio (binding signal/HTRF signal)", "setting": "2C4", "value": 25.5}, {"measurement": "fold increase of ratio over parental SEQ ID NO: 6", "setting": "36D6", "value": 1.83}, {"measurement": "ratio (binding signal/HTRF signal)", "setting": "36D6", "value": 10.8}, {"measurement": "fold increase of ratio over parental SEQ ID NO: 6", "setting": "48D11", "value": 2.98}, {"measurement": "ratio (binding signal/HTRF signal)", "setting": "48D11", "value": 17.7}, {"measurement": "fold increase of ratio over parental SEQ ID NO: 6", "setting": "4C1", "value": 3.92}, {"measurement": "ratio (binding signal/HTRF signal)", "setting": "4C1", "value": 23.3}, {"measurement": "fold increase of ratio over parental SEQ ID NO: 6", "setting": "50G10", "value": 4.7}, {"measurement": "ratio (binding signal/HTRF signal)", "setting": "50G10", "value": 27.9}, {"measurement": "fold increase of ratio over parental SEQ ID NO: 6", "setting": "53G10", "value": 2.93}, {"measurement": "ratio (binding signal/HTRF signal)", "setting": "53G10", "value": 17.4}, {"measurement": "fold increase of ratio over parental SEQ ID NO: 6", "setting": "56F8", "value": 3.65}, {"measurement": "ratio (binding signal/HTRF signal)", "setting": "56F8", "value": 21.7}, {"measurement": "fold increase of ratio over parental SEQ ID NO: 6", "setting": "57B8", "value": 1.7}, {"measurement": "ratio (binding signal/HTRF signal)", "setting": "57B8", "value": 10.1}, {"measurement": "fold increase of ratio over parental SEQ ID NO: 6", "setting": "58A5", "value": 3.69}, {"measurement": "ratio (binding signal/HTRF signal)", "setting": "58A5", "value": 21.9}, {"measurement": "fold increase of ratio over parental SEQ ID NO: 6", "setting": "60A2", "value": 2.53}, {"measurement": "ratio (binding signal/HTRF signal)", "setting": "60A2", "value": 15}, {"measurement": "fold increase of ratio over parental SEQ ID NO: 6", "setting": "63C3", "value": 4.15}, {"measurement": "ratio (binding signal/HTRF signal)", "setting": "63C3", "value": 24.7}, {"measurement": "fold increase of ratio over parental SEQ ID NO: 6", "setting": "67C11", "value": 3.57}, {"measurement": "ratio (binding signal/HTRF signal)", "setting": "67C11", "value": 21.2}, {"measurement": "fold increase of ratio over parental SEQ ID NO: 6", "setting": "69G8", "value": 8.55}, {"measurement": "ratio (binding signal/HTRF signal)", "setting": "69G8", "value": 50.8}, {"measurement": "fold increase of ratio over parental SEQ ID NO: 6", "setting": "6E12", "value": 2.85}, {"measurement": "ratio (binding signal/HTRF signal)", "setting": "6E12", "value": 16.9}, {"measurement": "fold increase of ratio over parental SEQ ID NO: 6", "setting": "71E7", "value": 3.19}, {"measurement": "ratio (binding signal/HTRF signal)", "setting": "71E7", "value": 19}, {"measurement": "fold increase of ratio over parental SEQ ID NO: 6", "setting": "74H9", "value": 6.09}, {"measurement": "ratio (binding signal/HTRF signal)", "setting": "74H9", "value": 36.1}, {"measurement": "fold increase of ratio over parental SEQ ID NO: 6", "setting": "76A10", "value": 3.37}, {"measurement": "ratio (binding signal/HTRF signal)", "setting": "76A10", "value": 20}, {"measurement": "fold increase of ratio over parental SEQ ID NO: 6", "setting": "78G2", "value": 1.58}, {"measurement": "ratio (binding signal/HTRF signal)", "setting": "78G2", "value": 9.36}, {"measurement": "fold increase of ratio over parental SEQ ID NO: 6", "setting": "81F11", "value": 5.37}, {"measurement": "ratio (binding signal/HTRF signal)", "setting": "81F11", "value": 31.9}, {"measurement": "fold increase of ratio over parental SEQ ID NO: 6", "setting": "84B8", "value": 9.71}, {"measurement": "ratio (binding signal/HTRF signal)", "setting": "84B8", "value": 57.7}, {"measurement": "fold increase of ratio over parental SEQ ID NO: 6", "setting": "84E10", "value": 5.37}, {"measurement": "ratio (binding signal/HTRF signal)", "setting": "84E10", "value": 31.9}, {"measurement": "fold increase of ratio over parental SEQ ID NO: 6", "setting": "85A7", "value": 4.72}, {"measurement": "ratio (binding signal/HTRF signal)", "setting": "85A7", "value": 28}, {"measurement": "fold increase of ratio over parental SEQ ID NO: 6", "setting": "86B3", "value": 10.5}, {"measurement": "ratio (binding signal/HTRF signal)", "setting": "86B3", "value": 62.4}, {"measurement": "fold increase of ratio over parental SEQ ID NO: 6", "setting": "86G3", "value": 3.87}, {"measurement": "ratio (binding signal/HTRF signal)", "setting": "86G3", "value": 23}, {"measurement": "fold increase of ratio over parental SEQ ID NO: 6", "setting": "87H5", "value": 1.64}, {"measurement": "ratio (binding signal/HTRF signal)", "setting": "87H5", "value": 9.77}, {"measurement": "fold increase of ratio over parental SEQ ID NO: 6", "setting": "89F11", "value": 2.42}, {"measurement": "ratio (binding signal/HTRF signal)", "setting": "89F11", "value": 14.4}, {"measurement": "fold increase of ratio over parental SEQ ID NO: 6", "setting": "8A10", "value": 6.29}, {"measurement": "ratio (binding signal/HTRF signal)", "setting": "8A10", "value": 37.4}, {"measurement": "fold increase of ratio over parental SEQ ID NO: 6", "setting": "96A7", "value": 1.85}, {"measurement": "ratio (binding signal/HTRF signal)", "setting": "96A7", "value": 11}, {"measurement": "fold increase of ratio over parental SEQ ID NO: 6", "setting": "96G5", "value": 2.4}, {"measurement": "ratio (binding signal/HTRF signal)", "setting": "96G5", "value": 14.3}, {"measurement": "fold increase of ratio over parental SEQ ID NO: 6", "setting": "96H8", "value": 4.8}, {"measurement": "ratio (binding signal/HTRF signal)", "setting": "96H8", "value": 28.5}, {"measurement": "fold increase of ratio over parental SEQ ID NO: 6", "setting": "9C6", "value": 5.54}, {"measurement": "ratio (binding signal/HTRF signal)", "setting": "9C6", "value": 32.9}, {"measurement": "fold increase of ratio over parental SEQ ID NO: 6", "setting": "[1]", "value": 1}, {"measurement": "fold increase of ratio over parental SEQ ID NO: 6", "setting": "[2]", "value": 1}, {"measurement": "ratio (binding signal/HTRF signal)", "setting": "[3]", "value": 5.94}]}]}
